Source: article PMC11006869

Legend:
[1] = molecular target: ErNaR, NDQ rhodopsin (light-driven sodium pump) from Erythrobacter sp. HL-111 (Erythrobacter sp. HL-111); assay: SEC; detergent-solubilized ErNaR, pH 8.0
[2] = molecular target: ErNaR, NDQ rhodopsin (light-driven sodium pump) from Erythrobacter sp. HL-111 (Erythrobacter sp. HL-111); assay: SEC; detergent-solubilized ErNaR, pH 2.3
[3] = molecular target: ErNaR, NDQ rhodopsin (light-driven sodium pump) from Erythrobacter sp. HL-111 (Erythrobacter sp. HL-111); assay: cryo-EM structure; single particle; 20 mM Tris pH 8.0, 200 mM NaCl, 0.05% DDM; C5 symmetry; 2.63 Å
[4] = molecular target: ErNaR, NDQ rhodopsin (light-driven sodium pump) from Erythrobacter sp. HL-111 (Erythrobacter sp. HL-111); assay: cryo-EM structure; single particle; 100 mM sodium acetate pH 4.3, 200 mM NaCl, 0.05% DDM; C5 symmetry; 2.50 Å

stoichiometry N [1]: 5 | stoichiometry N [2]: 5 | stoichiometry N [3]: 5 | stoichiometry N [4]: 5
Substance: ErNaR, NDQ rhodopsin (light-driven sodium pump) from Erythrobacter sp. HL-111 (natural protein)
